Test [1] has as its target T1, Recombinant His-tagged HP1γ (human, UniProt Q13185 1-183).
T1 construct: HP1γ, human; the cDNA used encodes 183 amino acids; pCold I vector; also called His-HP1γ; His-tag HP1γ; source: E. coli DH5α (pCold I), isolated with TALON His-tag resin, dialysed
Description: pull-down; His-tagged HP1γ forms incubated with GST-KDM2A fragments in 300 mM NaCl, 50 mM Na-phosphate pH 7.0, 4 °C 1 h; collected on TALON resin (1% NP40 washes); SDS-PAGE. As to conditions: both partners purified.

Test [2] has as its target T2, Recombinant His-tagged HP1γ (CSD) (human, UniProt Q13185 110-183).
T2 construct: HP1γ, human, chromoshadow domain construct, amino acids 110-183; Limits 110-183 are those printed for the HP1γ (CSD) cDNA; the His-tag plasmids are described only as 'His-tag HP1γ and its mutants'; also called CSD of HP1γ; His-HP1γ mutant; source: E. coli DH5α (pCold I), isolated with TALON His-tag resin, dialysed
The description is as above. As to conditions: both partners purified.

T2 sequence (Q13185 110-183): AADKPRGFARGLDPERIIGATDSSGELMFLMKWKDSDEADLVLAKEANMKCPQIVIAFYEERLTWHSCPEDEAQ
T1 sequence (Q13185 whole entry): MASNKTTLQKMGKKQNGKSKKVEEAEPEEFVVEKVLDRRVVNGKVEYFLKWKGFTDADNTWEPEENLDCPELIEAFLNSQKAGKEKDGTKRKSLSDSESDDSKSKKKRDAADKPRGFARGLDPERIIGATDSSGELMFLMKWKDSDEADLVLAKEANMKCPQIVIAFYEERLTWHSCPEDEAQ

B1: recombinant KDM2A fragment (amino acids 785–817) fused with GST (domain or fragment, UniProt Q9Y2K7 785-817, looked up)
chain: ELSEVEKAKIRGSYLTVTLQRPTKELHGTSIVP
notes: also called GST-KDM2A fragment; source: E. coli DH5α (pGEX-3X), isolated on glutathione-Sepharose, dialysed
B1: the binding result in test [1] and in test [2] was “binds” in each case.

The values are drawn from article PMC6677663, “KDM2A-dependent reduction of rRNA transcription on glucose starvation requires HP1 in cells, including triple-negative breast cancer cells” (Oncotarget, 2019).
